{"source": "the DeepSol protein solubility set"}
{"assay": "soluble on expression in E. coli; label from the status in PepcDB or PDB records"}
{"sequence": "MGSDKIHHHHHHAAVKKIIEMGQNDNQVMHQLDILTNRFGGRLIGSDAYENAAEWMVREFKSWGLDVQLEEAGTVPVGFNRGPWFGRLLSDNGMILHFATPSYTSGTKGVQRGHAVMEPRNDEEFQQIKGRLNGAWVLISGKNVGWPIDRSASGDSIRAEIKKENNEIMKKNNDLRRRNWENGEKNEMLPYKEFPGLYYKEMCEAGALGFIQSSTVPIRALYDRKMMNDPNTNFDNLPELPDIKLDEHQFAIIEQMVKERRTFELEFDIRNHFKLGPVKYHNVVASIKGSKYPDEYVIISGHLDAFDVATGGIDCGTGIGPMMEAARMIAKSGAKPKRTILFIGFAGEEFGLLGAQAWVKAHKDKLPKIANLFNRDGGPEPPVGISVPQAMYDDFVKISEPIQKIRPDYPFEVKVREPRKRPTRMGGTDASVFAIEGVPTLGFTTEDFKGYDFDYGEIWHTERDLYTKNIPEYQEHTATVTAIIALGVANLDKQLSREGLYTEE", "soluble on expression in E. coli": "not soluble"}
{"sequence": "MGSDKIHHHHHHACCQGAASSGNAGKNASRVRIASNDSAKLVPDKALNDASCVLAGLPVDKASGKLYALTRTKEWKNHARYMDQIWNVFRQTAPRLVAFSQTELEDINTRCHTLFYPFGGPDFLFANAFFPEMDTYVLIGLEPAGTAPKVKHPSAETYRLYQNAVSNVLNLSFFNDMDKELANDTIDGVVPIYSLLMARGNRKIVSIQEVWLSETGDLFERKEGDTIRNTCSAGMEVRFFRPGASRLQTLYYFCTDISNEGLQANRPLQAFMDRFDAETTATFVKSASYLMHEPAFSRIRETILQKSSAVVQDDSSIPLSCFDPEVWSVTLYGTFYKPISTFSQYLQPQLRDAYQLGDPNPLNFRIGYARQSNLQVARRK", "soluble on expression in E. coli": "not soluble"}
{"sequence": "MGSDKIHHHHHHAELPAGTVIDKANLDKIKSDTFDGHTIASLLTDKLEWQIRNTGLKIPLGHAKPVQLDPKYIEATKKNAGKAQFDEKSREVTGWVAGIPFPEVSQNDPFAGDKLVWNFYYASPEGDVINNKATFLMISGDKGLESTQDWLFERYYMKGRISGDKPVLGDGSILSKTLFVATAPEDIKGVGTFTIRYDSPKLEDSWAYIKSARRTRRLSGGAWMDPVGGLDVLNDDIYVWNARPSWYPKVKLVGRRWILAISDAKLGYNASKKGTPEEWKTVDLSNPPYWNPVQTWQPREVWVIEGTPPAEHPYGKKVVYMDVNYPRVYMGEAYDKKGEFWKFINFHMTPSVGEDGTKYSSSIQGDIIDFKARHASIYLFRGYKLNEAKIKETDMSYSALESIAK", "soluble on expression in E. coli": "not soluble"}
{"sequence": "MGSDKIHHHHHHAFCLDNGLGRTPPMGWMSWTAFYCEIDCVKHPTGCINEQLYKDMADQLVSGGYDKVGYKSVHIDDCWSEMERDSHGILVANKTRFPSGMKALAKYMHDRGLKFGIYEDYGTKTCGGYPGSYKHEKVDAQTFAAWDVDYLKLDGCNIDQAMMPIGYPLFEKELNETGRPIMYSCSW", "soluble on expression in E. coli": "not soluble"}
{"sequence": "MGSDKIHHHHHHAKNVLKAWLVDNTVTTDDKTDKIFQLETTRSIDKEIILDRMVAKNPGVRRETMALGIELMEEVVAEALMNGESVNTGLFRGVAQFRGVAKQNAWDAATNSIYVSLTQGKALREAIKDTRVDVLGERPTKFYIGSGQDATTRATDFSATAGRNFTLFGKNLTVAGTDPSVGVTLASAATGTVTKIDNDMIVLNEPSRLIILLPASLEDGEYMLTVTTQYRGGGGALLKTPRSTSHTIYIGGAPETGGSTGPPGDSDGDLNENPLG", "soluble on expression in E. coli": "not soluble"}
{"sequence": "MGSDKIHHHHHHAKTTTATTTQASVKKQTYTILSSSFYKTAKTYHTKDAKPVVYKAVMGADRPTMTLTAKGKLKAGTTYKVTKQVKVKINAKKSQKYSYVKGQGWVVSSKLTAGKFKAASGVKKTATKYTIVSVTALKKAKTVHTKDARPVVYKAAVAADRPTMTLTTNGKLKAATTYKVTKQAKLKNAAKKTVAFSYVSGHGWVLQRDLTNGQFMNAD", "soluble on expression in E. coli": "not soluble"}
{"sequence": "MGSDKIHHHHHHAKTTTQHGNALAAYNVKRYKTVKNRNLFVKRYAFQQSYTNIFQTSPTQISSTKGKAVTFKSNVFLPVTYQRSADWGNPQSEVLTPNGNTLYELITTSSQSTTGRIVRYNLGALRHFGITSTHMDALRRATYDHSVGKLTATDKAILKNVTVGPLFNTGHGQSLARNPKNGQLWFIGKPGAVKSNVQQVSTKTLKPSTKVNFTLKNTVPMGSNLTFDKHGKAYFFTYSNGGWAPKGAVKIYQGTISTKSVHFHLVMQGLRYAPGTKPQSMAYNAKRNRLYFVSDSSLASIPVSKLGKLKASQVEGTNLNGHREFEGLQFTSNGSGYLLVNKGAELMQTTHATF", "soluble on expression in E. coli": "not soluble"}
{"sequence": "MGSDKIHHHHHHAQNTASVQEAMANYDYKTVIRLIDEESASPQLLIQKAKALKSLGRTAEALSTLQHIIIELPENQQALVEAAECCRQLSKFNEALGYYRKVMELNPEHIYAHLQYTRLLYNYQRYGDALRESIALARKDSSATVLRLMAESMEGAGMPVESMFCYLSIIRKYPSDYLSVAKLGSIFNTMKDYEGAIALTEAYRRTDSTNVEVNRQNALAYCLRKEYPTAIKRYQDLTARGDSTLLTCYYLGVSYYATKEYYKARDWLLKAKSCQSPGANLLYYLGRSCSKTLWKQEGIGYLNQAIALTIPADSIMERLYSGLADCYRQTKQTRDQIKATKEQYKYAPDKHILLYNLAFLSDKIGDTKATEHYLQAFLRTKSKQNAVLQQPDDDEEEPAPYIDYYKSATNKLESIRKEKFLKGEK", "soluble on expression in E. coli": "not soluble"}
{"sequence": "MGSDKIHHHHHHAQQSSGDYYEGLSRKIGFSQMIPPHGLEITYDKTVHIIFPSPVRYVDLGSPNLIAGKADGAENVIRVKATRKHFRSETNMSVITEDGNFYTFNVKYADEPLLLNVEMCDFIHDGESVNHPNNAMEIYLQELAGESPRLVRLIMKSVYMQDKRKVKHVGSKRFGVQYLLKGLYAHGELLYFHTEVKNATHVPFDVDFVTFKIVDKKIVKRTAMQEQVIYPLRAFNYVTRVDGKKNERTVFALPKFTIPDGKKLVVEMYEKQGGRHQSFEVENEDLVRAGTVNELKVR", "soluble on expression in E. coli": "not soluble"}
{"sequence": "MGSDKIHHHHHHAQSDGWSPKDHNLIKSVREDGRFLSSYGVVHAMLRNTEPRYAFHRDFSPKEFRKWQKGLRHAMEEIMKFPQIKNSPAPVCIKREQREGYRLEKWEFYPLPKCVSTFLVLIPDNINKPVPAILCIPGSGGNKEGLAGEPGIAPKLNDRYKDPKLTQALNFVKEGYIAVAVDNPAAGEASDLERYTLGSNYDYDVVSRYLLELGWSYLGYASYLDMQVLNWMKTQKHIRKDRIVVSGFSLGTEPMMVLGTLDTSIYAFVYNDFLCQTQERAEVMTMPDKNGRRPFPNSIRHLIPDFWKNFNFPDIVAALAPRPIILTEGGLDRDLDLVRKAYAIVGTPDNVKIYHYKKFSDPDTRKNVEYLPEGLDRNEYFRMVNVDGPNHYFKSELVVPWLRKLLEER", "soluble on expression in E. coli": "not soluble"}
{"sequence": "MGSDKIHHHHHHAQTEVLTGVTRGKDYGVVYALPKTQIEIEIKANKVNYKPGEFSKYADRYLRLTNVSAEPEEYWELNSVKVKPVGVPNSEATYFVKLKDKTVAPLMELTEEGLIKSINVPYSSNNAKNAANNAVAPQRKANPRDFLTEEILMASSTAKMAELVAKEIYNIRESKNALLRGQADNMPSDGAQLKIMLDNLNLQEEAMTEMFSGVRNKEEKTFTVRLTPDKEFDNEVAFRFSKKLGIVANNDLAGTPFYISLKDLKTVKIPQEDGKKKKEMEGIAYNVPGQAMVTLTDGKKKLYEGEIPVTQFGIIEYLAPVLFNKNSTIKVYFDPVTGGLLKVDREESK", "soluble on expression in E. coli": "not soluble"}
{"sequence": "MGSDKIHHHHHHAQTGASDGSRFGHGEDSIRCLKNISIYTEYVKTNNFKDAYTPWMSVFTEAPKAQVSTYTNGAKILRALIAGEKDAAKQKQYFNELMKVHDQRIQYLDDLNKLVKRDATKGSIIGMKAHDYFTMGGQDMNEAYNMFKEAIELEKENSDYFVLQEFMDAAARKMKSDEAYKEQFIQDYLFASGVADGALKAATKENDKKLLKVAKDNIDAFFINSGVATCDNLQAIYAPKVEQNKTNLDYLKQVISVMQMLNCTEQEAYFAASEAAHAIEPTAETAVGCGYMYYKKGDMDKCIDYFDQAINLEQDPLKKADYAYKTAAILFSKKQLSKAKQYALKSISLDGNNGKPYILIANMYASSPNWSDEAALNKCTYFAVIDKLQKAKSVDPSVAEEANKLIGTYAAHTPKDADLFFLSLKKGDSVTIGGWIGETTTIR", "soluble on expression in E. coli": "not soluble"}
